Positions count from the first letter of the chain named.
T1: GFP-9S library array, motif 4 ND N98F;D124K (synthetic construct, N98F;D124K)
T1 chain: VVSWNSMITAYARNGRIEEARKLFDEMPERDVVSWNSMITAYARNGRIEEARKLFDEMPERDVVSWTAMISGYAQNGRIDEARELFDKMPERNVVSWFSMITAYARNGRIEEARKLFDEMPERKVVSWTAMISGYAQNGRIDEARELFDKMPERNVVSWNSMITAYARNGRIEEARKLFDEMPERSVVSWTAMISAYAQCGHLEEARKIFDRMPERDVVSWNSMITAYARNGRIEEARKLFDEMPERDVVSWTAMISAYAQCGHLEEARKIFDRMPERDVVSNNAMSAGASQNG

T2: GFP-9S library array, motif 4 ND D124F (synthetic construct, D124F)
T2 chain: T1 chain with F98N, K124F

T3: GFP-9S library array, motif 4 ND D124N (synthetic construct, D124N)
T3 chain: T1 chain with F98N, K124N

T4: GFP-9S library array, motif 4 ND N98T;D124E (synthetic construct, N98T;D124E)
T4 chain: T1 chain with F98T, K124E

T5: GFP-9S library array, motif 4 ND N98K (synthetic construct, N98K)
T5 chain: T1 chain with F98K, K124D


Columns and labels:
Assay in all cases: high-throughput RNA pulldown from lysate on Ni-NTA beads; HRP: 50 mM Tris pH 8, 150 mM NaCl, 1 mM beta-mercaptoethanol, 50 ug/ml BSA, 3 ug/ml yeast RNA, 0.5% heparin; ITC and FP: Tris pH 8, 200 mM KCl, 5% glycerol; MST: 50 mM Tris pH 8, 200 mM NaCl, 1 mM DTT, BSA, heparin, 0.05% Tween 20
Settings in all cases: tags: N-terminal His-eGFP
[1] = biological target: T1, GFP-9S library array, motif 4 ND …
[2] = biological target: T2, GFP-9S library array, motif 4 ND D124F
[3] = biological target: T3, GFP-9S library array, motif 4 ND D124N
[4] = biological target: T4, GFP-9S library array, motif 4 ND …
[5] = biological target: T5, GFP-9S library array, motif 4 ND N98K

Binder | Kd ([1]; label: 5' Cy5) [nM] | Kd ([2]; label: 5' Cy5) [nM] | Kd ([3]; label: 5' Cy5) [nM] | Kd ([4]; label: 5' Cy5) [nM] | Kd ([5]; label: 5' Cy5) [nM] | Kd ([1]; label: 5' IRDye 800CW) [nM] | Kd ([2]; label: 5' IRDye 800CW) [nM] | Kd ([3]; label: 5' IRDye 800CW) [nM] | Kd ([4]; label: 5' IRDye 800CW) [nM] | Kd ([5]; label: 5' IRDye 800CW) [nM]
AUUACACGUGA (ssRNA) [Cy5-rpoA] | 160 | 109 | 3.13 | 258 | 189 |  |  |  |  | 
AUUAGACGUGA (ssRNA) [Cy5-rpoA-G] | 63.6 | 140 | 178 | 13.2 | 315 |  |  |  |  | 
AUUAAACGUGA (ssRNA) [IR-rpoA-A] |  |  |  |  |  | 121 | 202 | 114 | 185 | 409
AUUAUACGUGA (ssRNA) [IR-rpoA-U] |  |  |  |  |  | 667 | 63.9 | 11.6 | 134 | 279

From paper PMC8809517, “Cofactor-independent RNA editing by a synthetic S-type PPR protein”
